These results are taken from patent US20090325883A1 (LES LABORATOIRES SERVIER, published 2009).

For this experiment, the target named is T1, Bcl-XL (UniProt Q07817 1-209).
T1 construct: also called anti-apoptotic member Bcl-XL
As to the kind of experiment: fluorescence polarisation competition; 15 nM Bak BH3 carboxyfluorescein, 100 nM Bcl-XL. For orientation: Fluorescence polarisation rises when a labelled molecule tumbles more slowly, as on binding a larger partner.

In general, Ki refers to the dissociation constant of the complex between target and ligand, obtained from inhibition or displacement. A low value points to tighter binding.

T1 sequence (Q07817 1-209): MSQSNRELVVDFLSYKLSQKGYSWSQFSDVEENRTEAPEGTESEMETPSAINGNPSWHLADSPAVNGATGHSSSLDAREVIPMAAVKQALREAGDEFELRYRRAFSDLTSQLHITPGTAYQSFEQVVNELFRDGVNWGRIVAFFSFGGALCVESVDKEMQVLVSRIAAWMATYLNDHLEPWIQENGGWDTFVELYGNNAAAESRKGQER

B1: Cerd4 peptide (peptide)
peptide: MATVIHNPLKALGDQFYKEAIEHC
notes: also called peptide a)
In turn, B1 showed a Ki of 9 µM.

B2: Genematch peptide (peptide)
peptide: RLKHSCLLALKRAADLLGQRSSST
notes: also called peptide c)
Turning to B2, the Ki came to 1 µM.

B3: Mina53 peptide (peptide)
peptide: VATRRLSGFLRTLADRLEGTKELL
notes: also called peptide e)
In turn, B3 yielded a Ki of 20 µM.

B4: Loc 51569 peptide (peptide)
peptide: DMWDTRIAKLRVSADSFVRQQEA
notes: also called peptide d)
The molecule B4 showed a Ki of 8 µM.

B5: Kiaa 1578 peptide (peptide)
peptide: VMTQEVGQLLQDMGDDVYQQYRSL
notes: also called peptide b)
In the case of B5, the Ki was 32 µM. Compared with the last molecule, the Ki is about 4-fold higher.
